{
  "source": "paper PMC8115037",
  "about": "“Paracoccus denitrificans: a genetically tractable model system for studying respiratory complex I” (Scientific Reports, 2021)",
  "type_in_all_cases": "biochemical, Paracoccus denitrificans",
  "settings_in_all_cases": "FMN, FeS clusters",
  "key": {"[1]": {"substrate": "CCCCCCCCCCC1=C(C)C(=O)C(OC)=C(OC)C1=O", "experiment": "KM, NADH:DQ oxidoreduction by purified soluble enzyme"}, "[2]": {"substrate": "COC1=C(OC)C(=O)C(CC=C(C)C)=C(C)C1=O", "experiment": "KM, quinone reduction by purified soluble enzyme"}, "purified protein": {"substrate": "COC1=C(OC)C(=O)C(C/C=C(\\C)CC/C=C(\\C)CC/C=C(\\C)CC/C=C(\\C)CC/C=C(\\C)CC/C=C(\\C)CC/C=C(\\C)CC/C=C(\\C)CC/C=C(\\C)CCC=C(C)C)=C(C)C1=O", "experiment": "purified protein"}},
  "data": [
    {"protein": "complex I (NADH:ubiquinone oxidoreductase), Pd-CI (Paracoccus denitrificans PD1222) (protein, intact purified complex I, His6-tag on Nqo5; with multisubunit complex (14 core Nqo subunits plus PdNUMM, PdNUYM, PdN7BM)) chain 1: MDGDIRKNSYDDGSMDALTGEQSIRNFNINFGPQHPAAHGVLRMVLELDGEIVERADPHIGLLHRGTEKLMESRTYLQNLPYLDRLDYVAPMNQEHAWCLAIERLTGTVIPRRASLIRVLYSEIGRILNHLMGVTTGAMDVGALTPPLWGFEAREELMIFYERACGARLHAAYFRPGGVHQDLPPDLLDDIEEWCERFPKLVDDLDTLLTENRIFKQRLVDIGIVTEADALDWGYTGVMVRGSGLAWDLRRSQPYECYDEFDFQIPVGRNGDCYDRYLCRMAEMRESCKIMQQAVQKLRAEPAGDVLARGKLTPPRRAEMKRDMESLIHHFKLYTEGFKVPAGEVYAAVEAPKGEFGVYLVADGTNKPWRAKLRAPGFAHLQSIDWMSRGHMLADVPAIIATLDIVFGEVDR chain 2: MMTGLNTAGADRDLATAELNRELQDKGFLLTTTEDIINWARNGSLHWMTFGLACCAVEMMQTSMPRYDLERFGTAPRASPRQSDLMIVAGTLTNKMAPALRKVYDQMPEPRYVISMGSCANGGGYYHYSYSVVRGCDRIVPVDIYVPGCPPTAEALLYGILQLQRRIRRTGTLVR chain 3: MAEFWASPYGFALSMLLQGLAVIAFVMGSLIFMVYGDRKIWAAVQMRRGPNVVGPWGLLQTFADALKYIVKEIVIPAGADKFVYFLAPFLSMMLALFAFVVIPFDEGWVMANINVGILFIFAASSLEVYGVIMGGWASNSKYPFLASLRSAAQMISYEVSLGLIIIGIIISTGSMNLTAIVEAQRGDYGLLNWYWLPHLPMVVLFFVSALAECNRPPFDLVEAESELVAGFMTEYSSTPYLLFMAGEYIAMYLMCALLSLLFFGGWLSPVPFIADGWWWMVIKMWFWFYMFAMVKAIVPRYRYDQLMRIGWKVFLPLSLGWVVLVAILARYEILGGFWARFAVGG chain 4: MLNDQDRIFTNLYGMGDRSLAGAKKRGHWDGTAAIIQRGRDKIIDEMKASGLRGRGGAGFPTGMKWSFMPKESDGRPSYLVINADESEPATCKDREIMRHDPHTLIEGALIASFAMGAHAAYIYIRGEFIREREALQAAIDECYDAGLLGRNAAGSGWDFDLYLHHGAGAYICGEETALLESLEGKKGMPRMKPPFPAGAGLYGCPTTVNNVESIAVVPTILRRGAEWFASFGRPNNAGVKLFGLTGHVNTPCVVEEAMSIPMRELIEKHGGGIRGGWKNLKAVIPGGASCPVLTAEQCENAIMDYDGMRDVRSSFGTACMIVMDQSTDVVKAIWRLSKFFKHESCGQCTPCREGTGWMMRVMERLVRGDAEVEEIDMLFDVTKQVEGHTICALGDAAAWPIQGLIRNFREEIEDRIKAKRTGRMGAMAAE", "values": [
      {"measurement": "Km", "setting": "[1]", "value": "169 ± 15", "unit": "µM"},
      {"measurement": "Km", "setting": "[2]", "value": "124 ± 8", "unit": "µM"}
    ]},
    {"protein": "complex I (NADH:ubiquinone oxidoreductase), Pd-CI (Paracoccus denitrificans PD1222) (protein, purified complex I reconstituted in proteoliposomes, His6-tag on Nqo5; with multisubunit complex (14 core Nqo subunits plus PdNUMM, PdNUYM, PdN7BM)) chain 1: MDGDIRKNSYDDGSMDALTGEQSIRNFNINFGPQHPAAHGVLRMVLELDGEIVERADPHIGLLHRGTEKLMESRTYLQNLPYLDRLDYVAPMNQEHAWCLAIERLTGTVIPRRASLIRVLYSEIGRILNHLMGVTTGAMDVGALTPPLWGFEAREELMIFYERACGARLHAAYFRPGGVHQDLPPDLLDDIEEWCERFPKLVDDLDTLLTENRIFKQRLVDIGIVTEADALDWGYTGVMVRGSGLAWDLRRSQPYECYDEFDFQIPVGRNGDCYDRYLCRMAEMRESCKIMQQAVQKLRAEPAGDVLARGKLTPPRRAEMKRDMESLIHHFKLYTEGFKVPAGEVYAAVEAPKGEFGVYLVADGTNKPWRAKLRAPGFAHLQSIDWMSRGHMLADVPAIIATLDIVFGEVDR chain 2: MMTGLNTAGADRDLATAELNRELQDKGFLLTTTEDIINWARNGSLHWMTFGLACCAVEMMQTSMPRYDLERFGTAPRASPRQSDLMIVAGTLTNKMAPALRKVYDQMPEPRYVISMGSCANGGGYYHYSYSVVRGCDRIVPVDIYVPGCPPTAEALLYGILQLQRRIRRTGTLVR chain 3: MAEFWASPYGFALSMLLQGLAVIAFVMGSLIFMVYGDRKIWAAVQMRRGPNVVGPWGLLQTFADALKYIVKEIVIPAGADKFVYFLAPFLSMMLALFAFVVIPFDEGWVMANINVGILFIFAASSLEVYGVIMGGWASNSKYPFLASLRSAAQMISYEVSLGLIIIGIIISTGSMNLTAIVEAQRGDYGLLNWYWLPHLPMVVLFFVSALAECNRPPFDLVEAESELVAGFMTEYSSTPYLLFMAGEYIAMYLMCALLSLLFFGGWLSPVPFIADGWWWMVIKMWFWFYMFAMVKAIVPRYRYDQLMRIGWKVFLPLSLGWVVLVAILARYEILGGFWARFAVGG", "values": [
      {"measurement": "Km", "setting": "purified protein", "value": "1100 ± 200", "unit": "µM"}
    ]}
  ]
}
